Patent publication US20240295562

Assays:
QP47 peptide (FAAAYPDDD) = target: T1, QP47 peptide (FAAAYPDDD)
T1 chain: FAAAYPDDD

RRLDEESILKQK = target: T2, RRLDEESILKQK
T2 chain: RRLDEESILKQK

WKELDEESILKQK = target: T3, WKELDEESILKQK
T3 chain: WKELDEESILKQK

QP514 (DQQRLIFAYPDDD) = target: T4, QP514 (DQQRLIFAYPDDD)
T4 chain: DQQRLIFAYPDDD

KKLDEESILKQK = target: T5, KKLDEESILKQK
T5 chain: KKLDEESILKQK

IAKLDEESILKQK = target: T6, IAKLDEESILKQK
T6 chain: IAKLDEESILKQK

B1: Pyrococcus horikoshii TET II Aminopeptidase (hTET II) (protein)
chain: MEVRNMVDYELLKKVVEAPGVSGYEFLGIRDVVIEEIKDYVDEVKVDKLGNVIAHKKGEGPKVMIAAHMDQIGLMVTHIEKNGFLRVAPIGGVDPKTLIAQRFKVWIDKGKFIYGVGASVPPHIQKPEDRKKAPDWDQIFIDIGAESKEEAEDMGVKIGTVITWDGRLERLGKHRFVSIAFDDRIAVYTILEVAKQLKDAKADVYFVATVQEEVGLRGARTSAFGIEPDYGFAIDVTIAADIPGTPEHKQVTHLGKGTAIKIMDRSVICHPTIVRWLEELAKKHEIPYQLEILLGGGTDAGAIHLTKAGVPTGALSVPARYIHSNTEVVDERDVDATVELMTKALENIHELKI
- RSC (rapid sequential cleavage) population, protein sequencing assay with hTETII (1 µM) (QP47 peptide (FAAAYPDDD)): RSC population is ~40%

B2: AP37 (protein)
chain: MDLKGGESMVDWKLMQEIIEAPGVSGYEHLGIRDIVVDVLKEVADEVKVDKLGNVIAHFKGSSPRIMVAAHMDKIGVMVNHIDKDGYLHIVPIGGVLPETLVAQRIRFFTEKGERYGVVGVLPPHLRRGQEDKGSKIDWDQIVVDVGASSKEEAEEMGFRVGTVGEFAPNFTRLNEHRFATPYLDDRICLYAMIEAARQLGDHEADIYIVGSVQEEVGLRGARVASYAINPEVGIAMDVTFAKQPHDKGKIVPELGKGPVMDVGPNINPKLRAFADEVAKKYEIPLQVEPSPRPTGTDANMQINREGVATAVLSIPIRYMHSQVELADARDVDNTIKLAKALLEELKPMDFTPGHHHHHHHHHH
- Percent N-Terminal Residue Cut (HPLC assay), AP37 after conditioning, 1 µM (RRLDEESILKQK): 70%
- Percent N-Terminal Residue Cut (HPLC assay), AP37 after conditioning, 10 µM (RRLDEESILKQK): 100%
- Percent N-Terminal Residue Cut (HPLC assay), AP37 before conditioning, 1 µM (RRLDEESILKQK): 8%
- Percent N-Terminal Residue Cut (HPLC assay), AP37 before conditioning, 10 µM (RRLDEESILKQK): 26%
- Percent N-Terminal Residue Cut (HPLC assay), AP37 after conditioning, 1 µM (WKELDEESILKQK): 97%
- Percent N-Terminal Residue Cut (HPLC assay), AP37 after conditioning, 10 µM (WKELDEESILKQK): 99%
- Percent N-Terminal Residue Cut (HPLC assay), AP37 before conditioning, 1 µM (WKELDEESILKQK): 18%
- Percent N-Terminal Residue Cut (HPLC assay), AP37 before conditioning, 10 µM (WKELDEESILKQK): 55%
- cleavage of arginine in protein sequencing assay, AP37 (40 µM) alone (QP514 (DQQRLIFAYPDDD)): AP37 shows better efficiency cleaving arginine than PfuTET when alone
- Percent N-Terminal Residue Cut (HPLC assay), AP37 after conditioning, 1 µM (KKLDEESILKQK): 61%
- Percent N-Terminal Residue Cut (HPLC assay), AP37 after conditioning, 10 µM (KKLDEESILKQK): 100%
- Percent N-Terminal Residue Cut (HPLC assay), AP37 before conditioning, 1 µM (KKLDEESILKQK): 11%
- Percent N-Terminal Residue Cut (HPLC assay), AP37 before conditioning, 10 µM (KKLDEESILKQK): 71%
- Percent N-Terminal Residue Cut (HPLC assay), AP37 after conditioning, 1 µM (IAKLDEESILKQK): 74%
- Percent N-Terminal Residue Cut (HPLC assay), AP37 after conditioning, 10 µM (IAKLDEESILKQK): 100%
- Percent N-Terminal Residue Cut (HPLC assay), AP37 before conditioning, 1 µM (IAKLDEESILKQK): 13%
- Percent N-Terminal Residue Cut (HPLC assay), AP37 before conditioning, 10 µM (IAKLDEESILKQK): 57%

B3: AP30 (protein)
chain: MEVRNMVDYELLKKVVEAPGVSGYEFLGIRDVVIEEIKDYVDEVKVDKLGNVIAHKKGEGPKVMIAAHMDQIGLMVTHIEKNGFLRVAPIGGVDPKTLIAQRFKVWIDKGKFIYGVGASVPPHIQKPEDRKKAPDWDQIFIDIGAESKEEAEDMGVKIGTVITWDGRLERLGKHRFVSIAFDDRIAVYTILEVAKQLKDAKADVYFVATVQEEVGLRGARTSAFGIEPDYGFAIDVTIAADIPGTPEHKQVTHLGKGTAIKIMDRSVICHPTIVRWLEELAKKHEIPYQLEILLGGGTDAGAIHLTKAGVPTGALSVPARYIHSNTEVVDERDVDATVELMTKALENIHELKIGGSHHHHHHHHHHGGGSGGGSGGGSGLNDFFEAQKIEWHEGGGSGGGSGGGSGLNDFFEAQKIEWHE
- RSC (rapid sequential cleavage) population, protein sequencing assay with AP30 (5 µM) (QP47 peptide (FAAAYPDDD)): The RSC population with AP30 was only ~25%
